Experimental data published in publication PMC8252264, “Candida albicans and Candida glabrata triosephosphate isomerase – a moonlighting protein that can be exposed on the candidal cell surface and bind to human extracellular matrix proteins” (BMC Microbiology, 2021).

T1: human elastin (human, UniProt P15502 27-786)
T1 construct: elastin, human; No catalogue number printed; a commercial soluble elastin may be a cross-linked or hydrolysed tissue preparation; source: bought: Sigma-Aldrich
T1 sequence (looked up): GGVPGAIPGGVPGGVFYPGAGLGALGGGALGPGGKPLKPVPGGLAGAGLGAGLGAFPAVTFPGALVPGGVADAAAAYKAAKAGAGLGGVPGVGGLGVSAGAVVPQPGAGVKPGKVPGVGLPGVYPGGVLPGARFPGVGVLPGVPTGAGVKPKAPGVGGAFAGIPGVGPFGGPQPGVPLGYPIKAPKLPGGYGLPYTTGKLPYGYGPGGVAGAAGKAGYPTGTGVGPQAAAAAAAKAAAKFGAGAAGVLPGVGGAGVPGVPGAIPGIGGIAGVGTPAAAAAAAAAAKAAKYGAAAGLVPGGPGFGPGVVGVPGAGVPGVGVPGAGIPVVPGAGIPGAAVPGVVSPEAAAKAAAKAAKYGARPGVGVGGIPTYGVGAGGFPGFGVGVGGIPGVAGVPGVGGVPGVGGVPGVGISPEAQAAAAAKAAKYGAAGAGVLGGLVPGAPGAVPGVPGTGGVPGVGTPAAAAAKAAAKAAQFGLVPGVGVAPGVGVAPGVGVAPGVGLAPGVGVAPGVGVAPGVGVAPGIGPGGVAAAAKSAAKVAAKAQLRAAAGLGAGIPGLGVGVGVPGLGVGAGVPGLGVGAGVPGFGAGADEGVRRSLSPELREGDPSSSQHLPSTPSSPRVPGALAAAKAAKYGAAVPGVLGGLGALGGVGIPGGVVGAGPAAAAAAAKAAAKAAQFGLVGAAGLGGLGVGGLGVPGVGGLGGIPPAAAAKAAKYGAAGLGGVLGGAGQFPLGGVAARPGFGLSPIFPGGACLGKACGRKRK

B1: Candida albicans triosephosphate isomerase (Tpi1) (enzyme)
chain: MARQFFVGGNFKANGTKQQITSIIDNLNKADLPKDVEVVICPPALYLGLAVEQNKQPTVAIGAQNVFDKSCGAFTGETCASQILDVGASWTLTGHSERRTIIKESDEFIAEKTKFALDTGVKVILCIGETLEERKGGVTLDVCARQLDAVSKIVSDWSNIVVAYEPVWAIGTGLAATPEDAEETHKGIRAHLAKSIGAEQAEKTRILYGGSVNGKNAKDFKDKANVDGFLVGGASLKPEFVDIIKSRL
modifications: biotin (NHS-biotin) in the microplate assays; unlabelled in SPR, cross-linking and on cells
notes: triosephosphate isomerase Tpi1 of Candida albicans, native protein isolated from the cell wall; the UniProt ID is printed for the molecular modelling; Native protein, enzymatically active, no attached sugars found; The strain used (ATCC 10231) may differ from the strain of the UniProt entry; Modelled as a dimer, oligomeric state not measured here; also called C. albicans Tpi1; source: also …
B2: Candida glabrata triosephosphate isomerase (Tpi1) (enzyme)
chain: MARTFFVGGNFKLNGTKKSIKEIVDRLNTASLPENVEVVICPPATYLDYTVSLVSKKQVTVGGQNTYTKASGAYTGENSVDQLKDVGAKWVILGHSERRTYFHEDDKIVAEKTKFALDQGLGVILCIGETLEEKKAGVTLKVVERQLDAVIAEVKDWTNVVIAYEPVWAIGTGLAATAEDAQDIHHSIRSYLAEKLGKDTAEKTRILYGGSANGANAGTFKDKADVDGFLVGGASLKPEFVDIINSRN
modifications: biotin (NHS-biotin) in the microplate assay; unlabelled in SPR and on cells
notes: triosephosphate isomerase Tpi1 of Candida glabrata, native protein isolated from the cell wall; identifier not given; Native protein, enzymatically active, no attached sugars found; also called C. glabrata Tpi1; source: also endogenous, on live C. glabrata cells

Key:
[1] = molecular target: Candida glabrata triosephosphate isomerase (Tpi1) (Candida glabrata (strain CBS138, ATCC 2001)) (UniProt Q6FRI3); test: SPR; Biacore 3000, Tpi1 amine-coupled to a CM5 chip (ca. 150 RU), human ECM proteins 50-750 nM injected; 10 mM HEPES, 150 mM NaCl, 0.005 % P20, pH 7.4; 1:1 Langmuir model, global or local fit
[2] = molecular target: Candida albicans triosephosphate isomerase (Tpi1) (Candida albicans (strain ATCC 10231)) (UniProt Q9P940); test: as above
human vitronectin [3] = molecular target: T2, human vitronectin (human, UniProt P04004 20-478, biotin (NHS-biotin) in the whole-cell assay only; sulfo-SDAD on amino groups in the cross-linking experiment); test: as above; conditions: both partners purified
T2 construct: vitronectin, human; UniProt ID printed for the modelling only (there: vitronectin V65 subunit); No catalogue number printed; also called VTR; source: bought: R&D Systems
T2 sequence (P04004 20-478): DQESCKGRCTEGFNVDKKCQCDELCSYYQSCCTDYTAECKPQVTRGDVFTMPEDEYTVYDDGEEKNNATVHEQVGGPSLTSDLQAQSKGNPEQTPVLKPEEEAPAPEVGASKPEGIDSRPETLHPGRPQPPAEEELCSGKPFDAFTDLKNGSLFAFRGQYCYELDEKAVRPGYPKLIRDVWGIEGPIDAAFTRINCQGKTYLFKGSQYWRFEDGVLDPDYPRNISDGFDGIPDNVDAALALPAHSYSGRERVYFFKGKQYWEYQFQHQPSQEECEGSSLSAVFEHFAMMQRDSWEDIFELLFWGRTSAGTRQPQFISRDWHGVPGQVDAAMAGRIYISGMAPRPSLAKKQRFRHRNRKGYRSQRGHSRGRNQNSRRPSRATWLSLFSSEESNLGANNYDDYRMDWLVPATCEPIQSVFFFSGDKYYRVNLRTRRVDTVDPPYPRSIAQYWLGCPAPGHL

human elastin = molecular target: T1, human elastin; test: as above; conditions: both partners purified
human vitronectin [4] = molecular target: T2, human vitronectin; test: ELISA; microplate-based protein-binding assay: human ECM proteins coated (3 pmoles per well, MaxiSorp, overnight 4 °C), biotin-labelled Tpi1 10-800 nM in PBS, 1.5 h at 37 °C, SA-HRP/TMB detection; apparent KD; conditions: both partners purified
[5] = molecular target: human ECM proteins tested in the microplate-based protein-binding assay (Fig. 5); test: as above
human collagen (human) = test: as above

Row | Molecule | Kd [1] [nM] | koff [1] [s⁻¹] | kon [1] [M⁻¹ s⁻¹] | Kd [2] [nM] | koff [2] [s⁻¹] | kon [2] [M⁻¹ s⁻¹] | Kd (human vitronectin [3]) [nM] | koff (human vitronectin [3]) [s⁻¹] | kon (human vitronectin [3]) [M⁻¹ s⁻¹] | Kd (human elastin) [nM] | koff (human elastin) [s⁻¹] | kon (human elastin) [M⁻¹ s⁻¹] | Kd (human vitronectin [4]) [nM] | Kd [5] [nM] | Kd (human collagen (human)) [nM]
1 | human collagen (natural protein) | 214 | 0.00308 | 14400 | 109 | 0.00199 | 18200 |  |  |  |  |  |  |  |  | 
2 | human laminin (complex) | 253 | 0.00339 | 13400 | 739 | 0.0327 | 44200 |  |  |  |  |  |  |  |  | 
3 | human fibronectin (from UniProt P02751 32-2477) (natural protein) | 730 | 0.0473 | 64800 | 326 | 0.0105 | 32200 |  |  |  |  |  |  |  |  | 
4 | B1 |  |  |  |  |  |  | 86 | 0.00877 | 102000 | 821 | 0.0382 | 46500 | ~10 |  | 
5 | B2 |  |  |  |  |  |  | 168 | 0.0031 | 18400 | 20.1 | 0.00191 | 95100 |  | 100 | 1000
